Measurements: patent US20140242093A1, “METHODS AND COMPOSITIONS FOR MODULATING THE INNATE IMMUNE RESPONSE AND/OR MYOGENESIS IN A MAMMALIAN SUBJECT” (FRED HUTCHINSON CANCER RESEARCH CENTER, priority 2011, published 2014)

Tested on: Human myoblasts
Experiment: Expression array of the innate immune response to lentiviral infection versus uninfected cells
Assay type: cell-based
Protocol: RNA was harvested from the lenti-viral infected cells and uninfected control cells at 24 hours after infection.

B1: DUX4-s: short splice form of DUX4 (SEQ ID NO:112), keeps the double-homeobox domains, lacks the C-terminal activation domain (protein, listed as Homo sapiens)
chain: MALPTPSDSTLPAEARGRGRRRRLVWTPSQSEALRACFERNPYPGIATRERLAQAIGIPEPRVQIWFQNERSRQLRQHRRESRPWPGRRGPPEGRRKRTAVTGSQTALLLRAFEKDRFPGIAAREELARETGLPESRIQIWFQNRRARHPGQGGRAPAQV
What does the source list for B1?
DEFB103A and DEFB103B transcripts (expression array): not; CCL2 expression ratio vs GFP (.fc) (gene CCL2 NM_002982.3, vs lenti-GFP, 24 hours after infection): 0.44 log2 fold change; CCL2 expression ratio vs NoLenti (.fc) (gene CCL2 NM_002982.3, vs uninfected, 24 hours after infection): 2.82 log2 fold change; CCL5 expression ratio vs GFP (.fc) (gene CCL5 NM_002985.2, vs lenti-GFP, 24 hours after infection): 1.89 log2 fold change; CCL5 expression ratio vs NoLenti (.fc) (gene CCL5 NM_002985.2, vs uninfected, 24 hours after infection): 4.33 log2 fold change; CXCL1 expression ratio vs GFP (.fc) (gene CXCL1 NM_001511.1, vs lenti-GFP, 24 hours after infection): 0.20 log2 fold change; CXCL1 expression ratio vs NoLenti (.fc) (gene CXCL1 NM_001511.1, vs uninfected, 24 hours after infection): 3.36 log2 fold change; CXCL2 expression ratio vs GFP (.fc) (gene CXCL2 NM_002089.3, vs lenti-GFP, 24 hours after infection): 0.00 log2 fold change; CXCL2 expression ratio vs NoLenti (.fc) (gene CXCL2 NM_002089.3, vs uninfected, 24 hours after infection): 1.09 log2 fold change; CXCL5 expression ratio vs GFP (.fc) (gene CXCL5 NM_002994.3, vs lenti-GFP, 24 hours after infection): 0.82 log2 fold change; CXCL5 expression ratio vs NoLenti (.fc) (gene CXCL5 NM_002994.3, vs uninfected, 24 hours after infection): 2.60 log2 fold change; CXCL6 expression ratio vs GFP (.fc) (gene CXCL6 NM_002993.2, vs lenti-GFP, 24 hours after infection): 0.17 log2 fold change; CXCL6 expression ratio vs NoLenti (.fc) (gene CXCL6 NM_002993.2, vs uninfected, 24 hours after infection): 1.77 log2 fold change; DDX58 expression ratio vs GFP (.fc) (gene DDX58 NM_014314.3, vs lenti-GFP, 24 hours after infection): 0.02 log2 fold change; DDX58 expression ratio vs NoLenti (.fc) (gene DDX58 NM_014314.3, vs uninfected, 24 hours after infection): 2.14 log2 fold change; DHX58 (LGP2) expression ratio vs GFP (.fc) (gene DHX58 NM_024119.2, vs lenti-GFP, 24 hours after infection): 0.70 log2 fold change; DHX58 (LGP2) expression ratio vs NoLenti (.fc) (gene DHX58 NM_024119.2, vs uninfected, 24 hours after infection): 3.04 log2 fold change; IFI6 expression ratio vs GFP (.fc) (gene IFI6 NM_022872.2, vs lenti-GFP, 24 hours after infection): −0.04 log2 fold change; IFI6 expression ratio vs NoLenti (.fc) (gene IFI6 NM_022872.2, vs uninfected, 24 hours after infection): 5.05 log2 fold change; IFI16 expression ratio vs GFP (.fc) (gene IFI16 NM_005531.1, vs lenti-GFP, 24 hours after infection): 0.68 log2 fold change; IFI16 expression ratio vs NoLenti (.fc) (gene IFI16 NM_005531.1, vs uninfected, 24 hours after infection): 2.52 log2 fold change; IFI27 expression ratio vs GFP (.fc) (gene IFI27 NM_005532.3, vs lenti-GFP, 24 hours after infection): 0.27 log2 fold change; IFI27 expression ratio vs NoLenti (.fc) (gene IFI27 NM_005532.3, vs uninfected, 24 hours after infection): 7.60 log2 fold change; IFI35 expression ratio vs GFP (.fc) (gene IFI35 NM_005533.2, vs lenti-GFP, 24 hours after infection): 0.92 log2 fold change; IFI35 expression ratio vs NoLenti (.fc) (gene IFI35 NM_005533.2, vs uninfected, 24 hours after infection): 4.33 log2 fold change; IFI44L expression ratio vs GFP (.fc) (gene IFI44L NM_006820.1, vs lenti-GFP, 24 hours after infection): 0.47 log2 fold change; IFI44L expression ratio vs NoLenti (.fc) (gene IFI44L NM_006820.1, vs uninfected, 24 hours after infection): 6.22 log2 fold change; IFI44 expression ratio vs GFP (.fc) (gene IFI44 NM_006417.3, vs lenti-GFP, 24 hours after infection): 0.29 log2 fold change; IFI44 expression ratio vs NoLenti (.fc) (gene IFI44 NM_006417.3, vs uninfected, 24 hours after infection): 3.59 log2 fold change; IFIH1 (MDA5) expression ratio vs GFP (.fc) (gene IFIH1 NM_022168.2, vs lenti-GFP, 24 hours after infection): 1.66 log2 fold change; IFIH1 (MDA5) expression ratio vs NoLenti (.fc) (gene IFIH1 NM_022168.2, vs uninfected, 24 hours after infection): 5.34 log2 fold change; IFIT1 expression ratio vs GFP (.fc) (gene IFIT1 NM_001548.3, vs lenti-GFP, 24 hours after infection): 0.72 log2 fold change; IFIT1 expression ratio vs NoLenti (.fc) (gene IFIT1 NM_001548.3, vs uninfected, 24 hours after infection): 5.50 log2 fold change; IFIT3 expression ratio vs GFP (.fc) (gene IFIT3 NM_001549.2, vs lenti-GFP, 24 hours after infection): 1.81 log2 fold change; IFIT3 expression ratio vs NoLenti (.fc) (gene IFIT3 NM_001549.2, vs uninfected, 24 hours after infection): 5.49 log2 fold change; IFIT5 expression ratio vs GFP (.fc) (gene IFIT5 NM_012420.1, vs lenti-GFP, 24 hours after infection): −0.28 log2 fold change; IFIT5 expression ratio vs NoLenti (.fc) (gene IFIT5 NM_012420.1, vs uninfected, 24 hours after infection): 0.81 log2 fold change; IFITM1 expression ratio vs GFP (.fc) (gene IFITM1 NM_003641.3, vs lenti-GFP, 24 hours after infection): 0.34 log2 fold change; IFITM1 expression ratio vs NoLenti (.fc) (gene IFITM1 NM_003641.3, vs uninfected, 24 hours after infection): 7.08 log2 fold change; IFITM2 expression ratio vs GFP (.fc) (gene IFITM2 NM_006435.2, vs lenti-GFP, 24 hours after infection): 0.01 log2 fold change; IFITM2 expression ratio vs NoLenti (.fc) (gene IFITM2 NM_006435.2, vs uninfected, 24 hours after infection): 1.29 log2 fold change; IFITM3 expression ratio vs GFP (.fc) (gene IFITM3 NM_021034.2, vs lenti-GFP, 24 hours after infection): −0.13 log2 fold change; IFITM3 expression ratio vs NoLenti (.fc) (gene IFITM3 NM_021034.2, vs uninfected, 24 hours after infection): 1.84 log2 fold change
